Target: CD87 (UniProt Q03405)
Chain of UniProt Q03405 (Q03405 whole entry, looked up): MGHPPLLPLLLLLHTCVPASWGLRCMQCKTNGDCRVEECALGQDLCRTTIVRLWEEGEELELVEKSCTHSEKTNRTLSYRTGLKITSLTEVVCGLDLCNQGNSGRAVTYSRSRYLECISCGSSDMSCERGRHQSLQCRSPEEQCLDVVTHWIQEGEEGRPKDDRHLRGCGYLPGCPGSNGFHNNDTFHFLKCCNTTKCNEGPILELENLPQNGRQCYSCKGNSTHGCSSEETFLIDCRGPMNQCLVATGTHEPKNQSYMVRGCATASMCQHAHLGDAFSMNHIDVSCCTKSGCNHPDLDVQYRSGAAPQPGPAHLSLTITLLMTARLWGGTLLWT

Substance: high molecular weight urokinase-type plasminogen activator (HMW-uPA)
- anti-HIV activity (p17) of gel filtration fractions containing HMW-uPA (Nos. 15-18), co-culture assay: also were found to have anti-HIV activity (p17), thought that was weaker than ATF

Source: patent US20020193304
